Patent US20260022175A1 (Chugai, published 2026)
Numbering of substitutions follows the chain as printed. Names may count otherwise. Read-outs that look alike come from different tables or passages of the source.

T1: human FcγRIIa R allotype extracellular domain with C-terminal His-tag (human, UniProt P12318 34-217)
T1 construct: extracellular domain; also called hFcγR IIa R
T1 sequence (looked up): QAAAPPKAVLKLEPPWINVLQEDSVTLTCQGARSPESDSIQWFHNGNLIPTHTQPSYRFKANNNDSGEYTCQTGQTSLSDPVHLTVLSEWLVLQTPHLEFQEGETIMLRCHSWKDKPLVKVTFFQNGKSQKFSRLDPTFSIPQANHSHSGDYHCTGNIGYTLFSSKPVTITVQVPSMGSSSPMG

T2: human FcγRIIa H allotype extracellular domain with C-terminal His-tag (human, UniProt P12318 34-217)
T2 construct: extracellular domain; also called hFcγR IIa H
T2 sequence (looked up): T1 sequence (looked up) with R134H

T3: human FcγRIIb extracellular domain with C-terminal His-tag (human, UniProt P31994 43-217)
T3 construct: extracellular domain; also called hFcγR IIb
T3 sequence (looked up): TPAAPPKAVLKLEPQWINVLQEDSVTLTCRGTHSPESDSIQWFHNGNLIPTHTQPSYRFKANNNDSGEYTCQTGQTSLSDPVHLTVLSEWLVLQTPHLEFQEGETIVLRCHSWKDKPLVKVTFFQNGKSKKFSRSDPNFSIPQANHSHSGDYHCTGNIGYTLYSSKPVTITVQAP

B1: 04H1389-Km473/04L1305-k0MT//04H1389-Hm451/04L1305-k0MT (antibody)
heavy 1: EVQLVESGGGLVKPGGSLRLSCAASGFTFSSKTMNWVRQAPGKGLEWVSSISTQSHYIYYAESVKGRFTISRDNAKNSLYLQMNSLRAEDTAVYYCARYGKREDMLWVFDYWGQGTLVTVSSASTKGPSVFPLAPSSKSTSGGTAALGCLVKDYFPEPVTVSWNSGALTSGVHTFPAVLQSSGLYSLSSVVTVPSSSLGTQTYICNVNHKPSNTKVDKRVEPKSCDKTHTCPPCPAPEFQWGPMVFLFPPKPKDVLMISRTPEVTCVVVDVSDEEPEVKFNWYVDGVEVHNAKTKPREEQYNATYRVVSVLPVLHQDWLNGKEYKCKVSNDALPAPIEKTISKAKGQPREPQVCTLPPSREEMTKNQVSLWCLVKGFYPSDIAVEWESNGQPENNYKTTPPVLDSDGSFFLYSKLTVDKSRWQQGNVFSCSVMHEALHAHTTRKELSLSP
heavy 2: EVQLVESGGGLVKPGGSLRLSCAASGFTFSSKTMNWVRQAPGKGLEWVSSISTQSHYIYYAESVKGRFTISRDNAKNSLYLQMNSLRAEDTAVYYCARYGKREDMLWVFDYWGQGTLVTVSSASTKGPSVFPLAPSSKSTSGGTAALGCLVKDYFPEPVTVSWNSGALTSGVHTFPAVLQSSGLYSLSSVVTVPSSSLGTQTYICNVNHKPSNTKVDKRVEPKSCDKTHTCPPCPAPELLAGPSVFLFPPKPKDVLMISRTPEVTCVVVDVSHEEPEVKFNWYVDGVEVHNAKTKPREEQYNATYRVVSVLPVLHQDWLNGKEYKCKVSNDALPAPIEETISKAKGQPREPQVYTLPPSRCEMTKNQVSLSCAVKGFYPSDIAVEWESNGQPENNYKTTPPVLDSDGSFFLVSKLTVDKSRWQQGNVFSCSVMHEALHAHTTRKELSLSP
light: DIVMTQSPLSLPVTPGEPASISCDGPSTGVGDYNYVHWYQQKPGQAPRLLIYFTSKKPSGVPDRFSGSGSGTDFTLKISRVEAEDVGVYYCQTYAAPLGPMFGQGTKLEIKRTVAAPSVFIFPPSDEQLKSGTASVVCLLNNFYPREAKVQWKVDNALQSGNSQESVTEQDSKDSTYSLSSTLTLSKADYEKHKVYACEVTHQGLSSPVTKSFNRGEC
notes: Heterodimerized antibody; also called SW1389-ART5+ACT1
B2: 04H1389-Km473/04L1305-k0MT//04H1389-Hm482/04L1305-k0MT (antibody)
heavy 1: B1 heavy 1
heavy 2: B1 heavy 2 with A335K, I337D
light: B1 light
notes: Heterodimerized antibody; also called SW1389-ART6+ACT1
B3: 04H1654-KT462/04L1610-lam1//04H1656-HT441/04L1610-lam1 (antibody, human IgG1, lambda)
heavy 1: QVQLVESGGGVVQPGGSLRLSCAASGFTFSSKTMNWVRQAPGKGLEWVSSISTQSHYIYYARSVRGRFTISRDNAKNSLYLQMNSLRAEDTAVYYCARYGKREDMLWVFDYWGQGTLVTVSSASTKGPSVFPLAPSSKSTSGGTAALGCLVKDYFPEPVTVSWNSGALTSGVHTFPAVLQSSGLYSLSSVVTVPSSSLGTQTYICNVNHKPSNTKVDKRVEPKSCDKTHTCPPCPAPEFQWGPMVFLFPPKPKDVLMISRTPEVTCVVVDVSDEEPEVKFNWYVDGVEVHNAKTKPREEQYNATYRVVSVLPVLHQDWLNGKEYKCKVSNDALPAPIEKTISKAKGQPREPQVYTLPPSRKEMTKNQVSLTCLVKGFYPSDIAVEWESNGQPENNYKTTPPVLDSDGSFFLYSKLTVDKSRWQQGNVFSCSVMHEALHNHYTQKSLSLSP
heavy 2: B3 heavy 1 with R62E, K101A, F239L, Q240L, W241A, M244S, D273H, K339E, K361E, K444E
light: QSALTQPPSASGSPGQSVTISCEGPSTGVGDYNWVHWYQQHPGKAPKLMIYFTSKKPSGVPDRFSGSKSGNTASLTVSGLQAEDEADYYCQTYAAPLGPMFGGGTKLTVLGQPKAAPSVTLFPPSSEELQANKATLVCLISDFYPGAVTVAWKADSSPVKAGVETTTPSKQSNNKYAASSYLSLTPEQWKSHRSYSCQVTHEGSTVEKTVAPTECS
notes: Heterodimerized antibody
B4: 04H1654-KT473/04L1610-lam1//04H1656-HT451/04L1610-lam1 (antibody)
heavy 1: B3 heavy 1 with N439A, Y441T, Q443R, S445E
heavy 2: B1 heavy 2 with E1Q, L11V, K13Q, K65R, K101A, C361E, S371T, A373L, V412Y, K444E
light: B3 light
notes: Heterodimerized antibody with N434A/Y436T/Q438R/S440E; also called SW1610-ART5+ACT1

Columns and labels:
[1] = molecular target: T4, human FcγRIa extracellular domain with C-terminal His-tag (human, UniProt P12314 16-292); assay: SPR Biacore T200, captured Ab, pH 7.4
T4 construct: extracellular domain; also called hFcγR Ia; hFcγRIa

[2] = molecular target: T5, human FcγRIIIa F allotype extracellular domain with C-terminal His-tag (human, UniProt P08637 17-208); assay: SPR Biacore T200, captured Ab, pH 7.4
T5 construct: extracellular domain; also called hFcγR IIIa F

[3] = molecular target: T1, human FcγRIIa R allotype extracellular …; assay: SPR Biacore T200, captured Ab, pH 7.4
[4] = molecular target: T2, human FcγRIIa H allotype extracellular …; assay: SPR Biacore T200, captured Ab, pH 7.4
[5] = molecular target: T6, human FcγRIIIa V allotype extracellular domain with C-terminal His-tag (human, UniProt P08637 17-208); assay: SPR Biacore T200, captured Ab, pH 7.4
T6 construct: extracellular domain; also called hFcγR IIIa V

[6] = molecular target: T4, human FcγRIa extracellular domain with …; assay: SPR; KD of 04H1389-G1m/04L1305-k0MT divided by KD of variant
[7] = molecular target: T5, human FcγRIIIa F allotype extracellular …; assay: as above
[8] = molecular target: T7, human FcRn (human, UniProt P55899 24-290; P61769 21-119); assay: as above
T7 construct: Prepared by the method of WO 2010/107110; also called hFcRn

[9] = molecular target: T1, human FcγRIIa R allotype extracellular …; assay: as above
[10] = molecular target: T2, human FcγRIIa H allotype extracellular …; assay: as above
[11] = molecular target: T6, human FcγRIIIa V allotype extracellular …; assay: as above
[12] = molecular target: T3, human FcγRIIb extracellular domain with …; assay: SPR; binding amount divided by that of 04H1389-G1m/04L1305-k0MT
[13] = molecular target: T3, human FcγRIIb extracellular domain with …; assay: SPR; FcγRIIb bound amount per unit captured Ab
[14] = molecular target: T7, human FcRn; assay: SPR Biacore T200, captured Ab, pH 6.0, steady state
[15] = molecular target: T3, human FcγRIIb extracellular domain with …; assay: SPR; FcγRIIb bound amount per unit captured Ab; remark: listed apart in the source
Procedure: (§1) The interaction between the generated antibodies and human FcγRs was analyzed by the following method using Biacore T200. 50 mM Na-Phosphate, 150 mM NaCl, 0.05% Tween20 (pH 7.4) was used as the running buffer, and the assay was performed at 25° C. For the sensor chips, Series S SA (GE Healthcare) chips onto which CaptureSelect Human Fab-lambda Kinetics Biotin Conjugate (Thermo Fisher Scientific) was immobilized were used. The antibodies of interest were captured onto these chips and each FcγR diluted in the running buffer was allowed to interact with them. Chips were regenerated with 10 mM Glycine-HCl (pH 1.5) and 25 mM NaOH, and assay was performed by repeatedly capturing antibodies. The dissociation constants KD (mol/L) for FcγRs of each antibody were calculated using Biacore T200 Evaluation Software 2.0, using the 1:1 Langmuir binding model for FcγRIa and FcγRIIIa and the steady state affinity model for FcγRIIa. For FcγRIIb, the binding amount of FcγRIIb per unit amount of antibody was calculated by correcting the binding amount of FcγRIIb obtained from the sensorgram obtained by the measurement with the amount of antibody captured onto the chip surface.

[16] = molecular target: T4, human FcγRIa extracellular domain with …; assay: SPR Biacore T200, captured Ab, pH 7.4; remark: listed apart in the source
Procedure: as §1

[17] = molecular target: T5, human FcγRIIIa F allotype extracellular …; assay: SPR Biacore T200, captured Ab, pH 7.4; remark: listed apart in the source
Procedure: as §1

[18] = molecular target: T1, human FcγRIIa R allotype extracellular …; assay: SPR Biacore T200, captured Ab, pH 7.4; remark: listed apart in the source
Procedure: as §1

[19] = molecular target: T2, human FcγRIIa H allotype extracellular …; assay: SPR Biacore T200, captured Ab, pH 7.4; remark: listed apart in the source
Procedure: as §1

[20] = molecular target: T6, human FcγRIIIa V allotype extracellular …; assay: SPR Biacore T200, captured Ab, pH 7.4; remark: listed apart in the source
Procedure: as §1

[21] = molecular target: T4, human FcγRIa extracellular domain with …; assay: SPR; KD of 04H1656-G1m/04L1610-lam1 divided by KD of variant
[22] = molecular target: T5, human FcγRIIIa F allotype extracellular …; assay: as above
[23] = molecular target: T7, human FcRn; assay: as above
[24] = molecular target: T1, human FcγRIIa R allotype extracellular …; assay: as above
[25] = molecular target: T2, human FcγRIIa H allotype extracellular …; assay: as above
[26] = molecular target: T6, human FcγRIIIa V allotype extracellular …; assay: as above
[27] = molecular target: T7, human FcRn; assay: SPR Biacore T200, captured Ab, pH 6.0, steady state; remark: listed apart in the source
Procedure: The interaction between the generated antibodies and human FcRn was analyzed by the following method using Biacore T200. 50 mM Na-Phosphate, 150 mM NaCl, 0.05% Tween20 (pH 6.0) was used as the running buffer, and the assay was performed at 25° C. For the sensor chip, Series S SA (GE Healthcare) chips onto which CaptureSelect Human Fab-lambda Kinetics Biotin Conjugate (Thermo Fisher Scientific) was immobilized were used. The antibodies of interest were captured onto these chips and FcRn diluted in the running buffer was allowed to interact with them. Chips were regenerated with 10 mM Glycine-HCl (pH 1.5) and 25 mM NaOH, and assay was performed by repeatedly capturing antibodies. The dissociation constant for FcRn of each antibody was calculated using the steady state model, using Biacore T200 Evaluation Software 2.0.

[28] = molecular target: T3, human FcγRIIb extracellular domain with …; assay: SPR; binding amount divided by that of 04H1656-G1m/04L1610-lam1

T5 sequence (P08637 17-208): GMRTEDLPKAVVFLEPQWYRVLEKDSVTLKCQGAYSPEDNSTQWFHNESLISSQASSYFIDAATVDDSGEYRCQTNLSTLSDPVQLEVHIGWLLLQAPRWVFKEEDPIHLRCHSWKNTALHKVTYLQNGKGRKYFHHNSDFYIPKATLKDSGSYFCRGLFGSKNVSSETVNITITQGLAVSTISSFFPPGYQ
T4 sequence (P12314 16-292): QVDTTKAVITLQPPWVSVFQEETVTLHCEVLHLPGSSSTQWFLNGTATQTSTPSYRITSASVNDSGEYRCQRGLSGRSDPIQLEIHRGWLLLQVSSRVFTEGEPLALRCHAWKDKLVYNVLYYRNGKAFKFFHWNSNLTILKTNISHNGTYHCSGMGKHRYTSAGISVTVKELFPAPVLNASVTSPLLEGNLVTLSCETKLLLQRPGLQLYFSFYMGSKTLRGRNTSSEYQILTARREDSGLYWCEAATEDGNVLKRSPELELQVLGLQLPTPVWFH
T7 sequence (P55899 24-290 limits assumed, chain 1 of 2): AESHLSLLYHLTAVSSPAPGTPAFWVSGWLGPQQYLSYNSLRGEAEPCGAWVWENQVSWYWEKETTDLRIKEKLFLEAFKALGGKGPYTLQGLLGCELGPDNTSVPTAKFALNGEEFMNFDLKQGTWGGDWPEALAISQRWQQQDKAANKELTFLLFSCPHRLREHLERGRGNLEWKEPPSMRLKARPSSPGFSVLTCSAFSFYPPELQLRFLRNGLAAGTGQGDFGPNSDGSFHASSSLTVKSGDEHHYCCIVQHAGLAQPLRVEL
T7 sequence (P61769 21-119 limits assumed, chain 2 of 2): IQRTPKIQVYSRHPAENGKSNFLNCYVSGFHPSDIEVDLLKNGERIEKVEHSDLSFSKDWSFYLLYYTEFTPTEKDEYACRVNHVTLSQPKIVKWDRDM
T6 sequence (P08637 17-208 F176V): as the sequence (P08637 17-208) above, with F160V counted along it

Binder | Kd [1] | Kd [2] | Kd [3] | Kd [4] | Kd [5] | Relative value to KD between G1m and hFcγRs [6] | Relative value to KD between G1m and hFcγRs [7] | Relative value to KD between G1m and hFcRn [8] | Relative value to KD between G1m and hFcγRs [9] | Relative value to KD between G1m and hFcγRs [10] | Relative value to KD between G1m and hFcγRs [11] | Relative binding amount [12] | Binding amount [13] | Kd [14] | Binding amount [15] | Kd [16] | Kd [17] | Kd [18] | Kd [19] | Kd [20] | further results
B1 | 0.15 nM | 17 nM | 160 nM | 53 nM | 3.9 nM | 0.5 | 41.3 | 3 | 9.7 | 20 | 225 | 1.3 | 0.015 | 330 nM |  |  |  |  |  |  | 
B2 | 0.061 nM | 2.7 nM | 86 nM | 35 nM | 0.95 nM | 1.1 | 258 | 2.7 | 18.5 | 30.8 | 930 | 3 | 0.034 | 370 nM |  |  |  |  |  |  | 
B3 |  |  |  |  |  |  |  |  |  |  |  |  |  |  | 0.014 | 0.12 nM | 17 nM | 180 nM | 99 nM | 4.4 nM | Relative value to KD between G1m and hFcγRs [21]: 0.8; Relative value to KD between G1m and hFcγRs [22]: 58.1; Relative value to KD between G1m and hFcRn [23]: 0.9; Relative value to KD between G1m and hFcγRs [24]: 9; Relative value to KD between G1m and hFcγRs [25]: 13.5; Relative value to KD between G1m and hFcγRs [26]: 218; Kd [27]: 2000 nM; Relative binding amount [28]: 1.7
B4 |  |  |  |  |  |  |  |  |  |  |  |  |  |  | 0.012 | 0.14 nM | 20 nM | 180 nM | 92 nM | 5.1 nM | Relative value to KD between G1m and hFcγRs [21]: 0.6; Relative value to KD between G1m and hFcγRs [22]: 50.8; Relative value to KD between G1m and hFcRn [23]: 3.2; Relative value to KD between G1m and hFcγRs [24]: 8.9; Relative value to KD between G1m and hFcγRs [25]: 14.5; Relative value to KD between G1m and hFcγRs [26]: 190; Kd [27]: 540 nM; Relative binding amount [28]: 1.5
